Here are results for one molecule from patent US20220133701A1, “METHODS OF TREATING PAIN” (Yeda Research and Development Co. Ltd., priority 2019, published 2022).

For the assay, the target named is T1, importin α3 (endogenous, mouse DRG sensory neurons) (mouse, UniProt O35343 2-521).
T1 construct: whole, on cells; Endogenous protein detected in fixed neurons with a rabbit polyclonal anti-importin α3 antibody in the proximity ligation assay; The protein is intracellular, not on the cell surface; also called Impα3; Karyopherin Subunit Alpha 4
T1 sequence (looked up): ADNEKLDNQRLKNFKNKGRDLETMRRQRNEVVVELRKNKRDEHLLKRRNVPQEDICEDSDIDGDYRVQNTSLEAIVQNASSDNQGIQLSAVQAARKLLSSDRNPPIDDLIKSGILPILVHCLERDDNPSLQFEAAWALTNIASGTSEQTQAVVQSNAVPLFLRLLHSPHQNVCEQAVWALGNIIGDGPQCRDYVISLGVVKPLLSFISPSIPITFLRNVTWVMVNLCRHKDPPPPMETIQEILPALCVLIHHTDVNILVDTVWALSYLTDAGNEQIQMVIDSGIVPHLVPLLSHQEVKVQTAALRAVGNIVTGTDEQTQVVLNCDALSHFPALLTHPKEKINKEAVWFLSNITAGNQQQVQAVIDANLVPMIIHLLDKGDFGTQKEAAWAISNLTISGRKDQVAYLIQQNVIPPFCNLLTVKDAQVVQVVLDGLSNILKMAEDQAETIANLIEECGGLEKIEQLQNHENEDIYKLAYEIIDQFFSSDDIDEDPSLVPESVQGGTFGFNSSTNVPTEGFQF
The assay is described as follows: proximity ligation assay of endogenous proteins in cultured DRG sensory neurons. The method, then:
Proximity Ligation Assay (PLA) in DRG cultures—The Proximity Ligation Assay (PLA) is used to detect spatial proximity within ˜40 nm of two proteins of interest [O. Söderberg et al., Nature Methods 3, 995-1000 (2006)]. DRG neurons were cultured for 24 hours and fixed for 20 minutes in 4% PFA before blocking and permeabilization with 5% Donkey Serum, 1% BSA, 0. 1% Triton X-100 in PBS for 1 hour. They were then incubated with anti-c-Fos (mouse monocolonal 1:1000, Abcam ab208942) and anti-importin α3 (rabbit polyclonal, 1:2000, Michael Bader lab′, MDC Berlin) overnight at 4° C. PLA was performed using Duolink (Sigma: PLA probe anti-mouse minus DU092004, anti-rabbit plus DU092002 with detection using Far-Red DU092013), according to the manufacturer's instructions. Identification of PLA signal within neurons was effected by subsequent immunostaining with goat anti-CGRP (AbD SEROTEC 1720-9007, IF 1:1000) for 60 minutes at room temperature, followed by three washes and an additional 60 minutes incubation with donkey anti-goat Alexa Fluor 488 (Jackson Immunoresearch, 1:1000). Cells were then washed, mounted with Flouromount-G (ThermoFisher Scientific, cat. #00-4958-02) and imaged by confocal microscopy (Olympus FV1000, 60× oil-immersion objective Olympus UPLSAPO-NA 1.35). PLA signals were quantified by counting puncta in ImageJ. […]

B1: c-Fos (other, mouse, UniProt P01101 1-380, looked up)
chain: MMFSGFNADYEASSSRCSSASPAGDSLSYYHSPADSFSSMGSPVNTQDFCADLSVSSANFIPTVTAISTSPDLQWLVQPTLVSSVAPSQTRAPHPYGLPTQSAGAYARAGMVKTVSGGRAQSIGRRGKVEQLSPEEEEKRRIRRERNKMAAAKCRNRRRELTDTLQAETDQLEDEKSALQTEIANLLKEKEKLEFILAAHRPACKIPDDLGFPEEMSVASLDLTGGLPEASTPESEEAFTLPLLNDPEPKPSLEPVKSISNVELKAEPFDDFLFPASSRPSGSETSRSVPDVDLSGSFYAADWEPLHSNSLGMGPMVTELEPLCTPVVTCTPGCTTYTSSFVFTYPEADSFPSCAAAHRKGSSSNEPSSDSLSSPTLLAL
notes: whole, on cells; Endogenous protein in both assays; The protein is intracellular, not on the cell surface
Consider B1, for which the binding result is listed as “binds”.
